The values that follow come from patent US6863888 (University of California, dated 2005).

B1: c-Jun N-terminal protein kinase (JNK), 46 kD form, endogenous kinase from cell extracts (enzyme)
chain: MSRSKRDNNFYSVEIGDSTFTVLKRYQNLKPIGSGAQGIVCAAYDAILERNVAIKKLSRPFQNQTHAKRAYRELVLMKCVNHKNIIGLLNVFTPQKSLEEFQDVYIVMELMDANLCQVIQMELDHERMSYLLYQMLCGIKHLHSAGIIHRDLKPSNIVVKSDCTLKILDFGLARTAGTSFMMTPYVVTRYYRAPEVILGMGYKENVDLWSVGCIMGEMVCHKILFPGRDYIDQWNKVIEQLGTPCPEFMKKLQPTVRTYVENRPKYAGYSFEKLFPDVLFPADSEHNKLKASQARDLLSKMLVIDASKRISVDEALQHPYINVWYDPSEAEAPPPKIPDKQLDEREHTIEEWKELIYKEVMDLEERTKNGVIRGQPSPLAQVQQ
B3: epitope-tagged JNK1 (Flag epitope Asp-Tyr-Lys-Asp-Asp-Asp-Asp-Lys inserted between codons 1 and 2), expressed in COS cells (enzyme)
chain: MDYKDDDDKSRSKRDNNFYSVEIGDSTFTVLKRYQNLKPIGSGAQGIVCAAYDAILERNVAIKKLSRPFQNQTHAKRAYRELVLMKCVNHKNIIGLLNVFTPQKSLEEFQDVYIVMELMDANLCQVIQMELDHERMSYLLYQMLCGIKHLHSAGIIHRDLKPSNIVVKSDCTLKILDFGLARTAGTSFMMTPYVVTRYYRAPEVILGMGYKENVDLWSVGCIMGEMVCHKILFPGRDYIDQWNKVIEQLGTPCPEFMKKLQPTVRTYVENRPKYAGYSFEKLFPDVLFPADSEHNKLKASQARDLLSKMLVIDASKRISVDEALQHPYINVWYDPSEAEAPPPKIPDKQLDEREHTIEEWKELIYKEVMDLEERTKNGVIRGQPSPLAQVQQ
notes: Tag inserted between codons 1 and 2 of the JNK1 cDNA in pCMV5; also called immunopurified JNK1

For assay [1], the target named is GAL4-cJun(1-223), GAL4 DNA binding domain fused to c-Jun AA 1-223 (yeast; human, UniProt P04386 1-147). Put plainly: cell-based or functional assay.
Assay [2] concerns the target B3. Put plainly: immunopurified JNK1 on GST-Jun fusion proteins bound to GSH-agarose, solid-phase kinase assay.
Description: (§1) Clarified cell extracts were incubated with GST fusion proteins immobilized on GSH-agarose beads. […] The reaction was terminated after 10 mins at 30° C. and the products were resolved by SDS-PAGE. The incorporation of [^32P]phosphate was visualized by autoradiography and quantitated with a phosphorimager and ImageQuant software (Molecular Dynamics Inc., Sunnyvale, Calif.).
(§2) Mock-transfected COS cells were used as a control. After 1 hour, the cells were lysed and subjected to immunoprecipitation with the M2 monoclonal antibody. […] The phosphorylated proteins were resolved by SDS-PAGE and detected by autoradiography.
Assay [3] has as its target B1. Briefly: GSTcJun deletion mutants on GSH-agarose, UV-irradiated HeLa extract; solid-phase kinase assay and eluted-kinase assay.
For assay [4], the target named is T1, GSTcJun(wt), glutathione-S-transferase fused to c-Jun AA 1-223 (human, UniProt P08515 1-218 = GST).
T1 construct: Expressed in E. coli, held on GSH-agarose beads; also called human GSTcJun
Put plainly: immunopurified JNK1 on GST-Jun fusion proteins bound to GSH-agarose, solid-phase kinase assay.
Description: as §1, §2

The target in assay [5] is B3. Put plainly: COS cell lysates on GST-cJun(1-79) immobilized on GSH-agarose beads, Western blot with M2 antibody. (In general: In western blotting, separated proteins are transferred to a membrane and probed.)
Description: COS cell extracts (250 µg) were incubated with 20 µg GST or GST-cJun immobilized on 10 µl GSH-agarose at 4° C. for 5 hours.
Mock-transfected COS cells were used in control experiments (lanes 1 & 2). The cells were either untreated (lanes 1 & 3) or irradiated with 40 J/m^2 UV-C (lanes 2, 4, & 5). Cell lysates were prepared and incubated with GST-cJun(1-79) (lanes 1–4) or GST (lane 5) immobilized on GSH-agarose beads.

On to B1, for which, in assay [1], the “Ha-Ras responsiveness, CAT activity of 5xGAL4-Elb-CAT reporter in F9 cells” value came out at 19 fold induction and the “UV responsiveness, CAT activity of 5xGAL4-Elb-CAT reporter in F9 cells” value was 7.5 fold.

B2: GST-cJun(43-223), GST fused to c-Jun AA 43-223 (other)
chain: ADPVGSLKPHLRAKNSDLLTSPDVGLLKLASPELERLIIQSSNGHITTTPTPTQFLCPKNVTDEQEGFAEGFVRALAELHSQNTLPSVTSAAQPVNGAGMVAPAVASVAGGSGSGGFSASLHSEPPVYANLSNFNPGALSSGGGAPSYGAAGLAFPAQPQQQQQPPHHLPQQMPVQHPRLQ
notes: also called removal of AA 1-42; deletion of residues 1-42; not shown: GST carrier (pGEX3X, Pharmacia) and the vector junction residues
B2: the binding result in assay [2] and in assay [3] was “no binding” each time.

Regarding B3, the binding result in assay [4] was “binds”.

B4: GST-cJun(1-79), GST fused to c-Jun AA 1-79 (other)
chain: MTAKMETTFYDDALNASFLPSESGPYGYSNPKILKQSMTLNLADPVGSLKPHLRAKNSDLLTSPDVGLLKLASPELERL
notes: also called GST fusion protein containing AA 1-79 of c-Jun; not shown: glutathione-S-transferase (GST) carrier encoded by pGEX3X (Pharmacia)
On to B4, for which, in assay [5], the binding result is recorded as “binds”.

B5: GSTcJun(33-223), GST fused to c-Jun AA 33-223 (other)
chain: ILKQSMTLNLADPVGSLKPHLRAKNSDLLTSPDVGLLKLASPELERLIIQSSNGHITTTPTPTQFLCPKNVTDEQEGFAEGFVRALAELHSQNTLPSVTSAAQPVNGAGMVAPAVASVAGGSGSGGFSASLHSEPPVYANLSNFNPGALSSGGGAPSYGAAGLAFPAQPQQQQQPPHHLPQQMPVQHPRLQ
notes: also called removal of AA 1-32; not shown: GST carrier (pGEX3X, Pharmacia) and the vector junction residues
As for B5, in assay [2], the binding result is on record as “binds”.
